Like-named read-outs stand apart in the source and are kept apart here.
What was measured:
Experiment in all cases: fluorescence anisotropy
[1] = target: T1, PabPolB exo- (family B DNA polymerase, exonuclease-deficient) (Pyrococcus abyssi, UniProt P0CL77 1-771, D215A)
T1 sequence: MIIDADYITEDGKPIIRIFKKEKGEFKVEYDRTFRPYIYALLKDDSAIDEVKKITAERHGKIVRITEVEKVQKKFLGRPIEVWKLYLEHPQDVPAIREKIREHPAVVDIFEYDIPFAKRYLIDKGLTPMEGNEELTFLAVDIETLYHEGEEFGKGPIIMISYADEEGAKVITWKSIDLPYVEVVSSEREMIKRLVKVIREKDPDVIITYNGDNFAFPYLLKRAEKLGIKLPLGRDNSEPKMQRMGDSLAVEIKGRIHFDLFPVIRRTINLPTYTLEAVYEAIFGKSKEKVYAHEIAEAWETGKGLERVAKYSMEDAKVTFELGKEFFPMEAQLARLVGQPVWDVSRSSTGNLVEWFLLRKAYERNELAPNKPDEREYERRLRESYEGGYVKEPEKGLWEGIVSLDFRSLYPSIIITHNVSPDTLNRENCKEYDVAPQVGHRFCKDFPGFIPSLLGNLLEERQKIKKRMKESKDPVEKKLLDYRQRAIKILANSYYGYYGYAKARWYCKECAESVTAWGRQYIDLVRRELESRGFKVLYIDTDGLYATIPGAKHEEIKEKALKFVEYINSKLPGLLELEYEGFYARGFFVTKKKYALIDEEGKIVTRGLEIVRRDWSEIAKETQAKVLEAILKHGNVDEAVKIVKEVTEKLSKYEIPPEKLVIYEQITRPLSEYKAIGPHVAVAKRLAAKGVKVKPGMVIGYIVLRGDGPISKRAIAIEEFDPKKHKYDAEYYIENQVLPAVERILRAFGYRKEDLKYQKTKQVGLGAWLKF

[2] = target: T1, PabPolB exo- (family B DNA polymerase, …); remark: listed apart in the source
[3] = target: T1, PabPolB exo- (family B DNA polymerase, …); remark: listed apart in the source
[4] = target: T1, PabPolB exo- (family B DNA polymerase, …); remark: listed apart in the source
[5] = target: T1, PabPolB exo- (family B DNA polymerase, …); remark: listed apart in the source
[6] = target: T1, PabPolB exo- (family B DNA polymerase, …); remark: listed apart in the source

B1: HEX-labeled primer/template 18/25 (dsDNA)
DNA 1: CGCCGGGCCGAGCCGTGC
DNA 2: AGGTCGTGCACGGCTCGGCCCGGCG
[1]
  Kd: 20 ± 6 nM
[2]
  Kd: 17 ± 2 nM
[3]
  Kd: 25 ± 3 nM
[4]
  Kd: 43 ± 6 nM
[5]
  Kd: 38 ± 6 nM
[6]
  Kd: 7 ± 1 nM

Source: PMC5716173
